In patent publication US20120321619A1 (Bayer, published 2012):

B1: wild-type Fab M31-B01 (Fab, V domains shown)
VH: EVQLLESGGGLVQPGGSLRLSCAASGFTFSNAWMSWVRQAPGKGLEWVSYISSSGSTIYYADSVKGRFTISRDNSKNTLYLQMNSLRAEDTAVYYCAREGLWAFDYWGQGTLVTVTS
VL: QSVLTQPPSASGTPGQRVTISCTGSSSNIGAGYVVHWYQQLPGTAPKLLIYDNNKRPSGVPDRFSGSKSGTSASLAISGLRSEDEADYYCAAWDDRLNGPVFGGGTKLTVLG
notes: Fab with 3×HA-tag and hexa-histidine tag at the C-terminus of the heavy chain, E. coli culture supernatant; also called M31-B01 (parental Fab)
B2: M31-B01 Fab LC W91E (Fab, V domains shown)
VH: EVQLLESGGGLVQPGGSLRLSCAASGFTFSNAWMSWVRQAPGKGLEWVSYISSSGSTIYYADSVKGRFTISRDNSKNTLYLQMNSLRAEDTAVYYCAREGLWAFDYWGQGTLVTVTS
VL: QSVLTQPPSASGTPGQRVTISCTGSSSNIGAGYVVHWYQQLPGTAPKLLIYDNNKRPSGVPDRFSGSKSGTSASLAISGLRSEDEADYYCAAEDDRLNGPVFGGGTKLTVLG
notes: Fab with 3×HA-tag and hexa-histidine tag at the C-terminus of the heavy chain, culture supernatant
B3: M31-B01 Fab LC R94M (Fab, V domains shown)
VH: EVQLLESGGGLVQPGGSLRLSCAASGFTFSNAWMSWVRQAPGKGLEWVSYISSSGSTIYYADSVKGRFTISRDNSKNTLYLQMNSLRAEDTAVYYCAREGLWAFDYWGQGTLVTVTS
VL: QSVLTQPPSASGTPGQRVTISCTGSSSNIGAGYVVHWYQQLPGTAPKLLIYDNNKRPSGVPDRFSGSKSGTSASLAISGLRSEDEADYYCAAWDDMLNGPVFGGGTKLTVLG
notes: as for B2
B4: M31-B01 Fab HC N31S (Fab, V domains shown)
VH: EVQLLESGGGLVQPGGSLRLSCAASGFTFSSAWMSWVRQAPGKGLEWVSYISSSGSTIYYADSVKGRFTISRDNSKNTLYLQMNSLRAEDTAVYYCAREGLWAFDYWGQGTLVTVTS
VL: QSVLTQPPSASGTPGQRVTISCTGSSSNIGAGYVVHWYQQLPGTAPKLLIYDNNKRPSGVPDRFSGSKSGTSASLAISGLRSEDEADYYCAAWDDRLNGPVFGGGTKLTVLG
notes: as for B2
B5: M31-B01 Fab HC A32Y (Fab, V domains shown)
VH: EVQLLESGGGLVQPGGSLRLSCAASGFTFSNYWMSWVRQAPGKGLEWVSYISSSGSTIYYADSVKGRFTISRDNSKNTLYLQMNSLRAEDTAVYYCAREGLWAFDYWGQGTLVTVTS
VL: QSVLTQPPSASGTPGQRVTISCTGSSSNIGAGYVVHWYQQLPGTAPKLLIYDNNKRPSGVPDRFSGSKSGTSASLAISGLRSEDEADYYCAAWDDRLNGPVFGGGTKLTVLG
notes: as for B2
B6: M31-B01 Fab LC K53Q (Fab, V domains shown)
VH: EVQLLESGGGLVQPGGSLRLSCAASGFTFSNAWMSWVRQAPGKGLEWVSYISSSGSTIYYADSVKGRFTISRDNSKNTLYLQMNSLRAEDTAVYYCAREGLWAFDYWGQGTLVTVTS
VL: QSVLTQPPSASGTPGQRVTISCTGSSSNIGAGYVVHWYQQLPGTAPKLLIYDNNQRPSGVPDRFSGSKSGTSASLAISGLRSEDEADYYCAAWDDRLNGPVFGGGTKLTVLG
notes: as for B2
B7: M31-B01 Fab LC P96A (Fab, V domains shown)
VH: EVQLLESGGGLVQPGGSLRLSCAASGFTFSNAWMSWVRQAPGKGLEWVSYISSSGSTIYYADSVKGRFTISRDNSKNTLYLQMNSLRAEDTAVYYCAREGLWAFDYWGQGTLVTVTS
VL: QSVLTQPPSASGTPGQRVTISCTGSSSNIGAGYVVHWYQQLPGTAPKLLIYDNNKRPSGVPDRFSGSKSGTSASLAISGLRSEDEADYYCAAWDDRLNGAVFGGGTKLTVLG
notes: as for B2
B8: M31-B01 Fab HC T56S (Fab, V domains shown)
VH: EVQLLESGGGLVQPGGSLRLSCAASGFTFSNAWMSWVRQAPGKGLEWVSYISSSGSSIYYADSVKGRFTISRDNSKNTLYLQMNSLRAEDTAVYYCAREGLWAFDYWGQGTLVTVTS
VL: QSVLTQPPSASGTPGQRVTISCTGSSSNIGAGYVVHWYQQLPGTAPKLLIYDNNKRPSGVPDRFSGSKSGTSASLAISGLRSEDEADYYCAAWDDRLNGPVFGGGTKLTVLG
notes: as for B2
B9: M31-B01 Fab LC N95aK (Fab, V domains shown)
VH: EVQLLESGGGLVQPGGSLRLSCAASGFTFSNAWMSWVRQAPGKGLEWVSYISSSGSTIYYADSVKGRFTISRDNSKNTLYLQMNSLRAEDTAVYYCAREGLWAFDYWGQGTLVTVTS
VL: QSVLTQPPSASGTPGQRVTISCTGSSSNIGAGYVVHWYQQLPGTAPKLLIYDNNKRPSGVPDRFSGSKSGTSASLAISGLRSEDEADYYCAAWDDRLKGPVFGGGTKLTVLG
notes: as for B2
B10: M31-B01 Fab HC Y102W (Fab, V domains shown)
VH: EVQLLESGGGLVQPGGSLRLSCAASGFTFSNAWMSWVRQAPGKGLEWVSYISSSGSTIYYADSVKGRFTISRDNSKNTLYLQMNSLRAEDTAVYYCAREGLWAFDWWGQGTLVTVTS
VL: QSVLTQPPSASGTPGQRVTISCTGSSSNIGAGYVVHWYQQLPGTAPKLLIYDNNKRPSGVPDRFSGSKSGTSASLAISGLRSEDEADYYCAAWDDRLNGPVFGGGTKLTVLG
notes: as for B2
B11: M31-B01 Fab HC I57T (Fab, V domains shown)
VH: EVQLLESGGGLVQPGGSLRLSCAASGFTFSNAWMSWVRQAPGKGLEWVSYISSSGSTTYYADSVKGRFTISRDNSKNTLYLQMNSLRAEDTAVYYCAREGLWAFDYWGQGTLVTVTS
VL: QSVLTQPPSASGTPGQRVTISCTGSSSNIGAGYVVHWYQQLPGTAPKLLIYDNNKRPSGVPDRFSGSKSGTSASLAISGLRSEDEADYYCAAWDDRLNGPVFGGGTKLTVLG
notes: as for B2
B12: M31-B01 Fab LC G95bR (Fab, V domains shown)
VH: EVQLLESGGGLVQPGGSLRLSCAASGFTFSNAWMSWVRQAPGKGLEWVSYISSSGSTIYYADSVKGRFTISRDNSKNTLYLQMNSLRAEDTAVYYCAREGLWAFDYWGQGTLVTVTS
VL: QSVLTQPPSASGTPGQRVTISCTGSSSNIGAGYVVHWYQQLPGTAPKLLIYDNNKRPSGVPDRFSGSKSGTSASLAISGLRSEDEADYYCAAWDDRLNRPVFGGGTKLTVLG
notes: as for B2
B13: M31-B01 Fab HC Y102K (Fab, V domains shown)
VH: EVQLLESGGGLVQPGGSLRLSCAASGFTFSNAWMSWVRQAPGKGLEWVSYISSSGSTIYYADSVKGRFTISRDNSKNTLYLQMNSLRAEDTAVYYCAREGLWAFDKWGQGTLVTVTS
VL: QSVLTQPPSASGTPGQRVTISCTGSSSNIGAGYVVHWYQQLPGTAPKLLIYDNNKRPSGVPDRFSGSKSGTSASLAISGLRSEDEADYYCAAWDDRLNGPVFGGGTKLTVLG
notes: as for B2
B14: M31-B01 Fab LC T24S (Fab, V domains shown)
VH: EVQLLESGGGLVQPGGSLRLSCAASGFTFSNAWMSWVRQAPGKGLEWVSYISSSGSTIYYADSVKGRFTISRDNSKNTLYLQMNSLRAEDTAVYYCAREGLWAFDYWGQGTLVTVTS
VL: QSVLTQPPSASGTPGQRVTISCSGSSSNIGAGYVVHWYQQLPGTAPKLLIYDNNKRPSGVPDRFSGSKSGTSASLAISGLRSEDEADYYCAAWDDRLNGPVFGGGTKLTVLG
notes: as for B2
B15: M20-D02 S-A Fab LC N95aW (Fab, V domains shown)
VH: EVQLLESGGGLVQPGGSLRLSCAASGFTFSDYQMTWIRQTPGKGLEWVSGVSWNGARTHYADSVKGRFTISRDNSKNTLYLQMNSLRAEDTAVYYCAKGDYLVYSAYYFDSWGQGTLVTVTS
VL: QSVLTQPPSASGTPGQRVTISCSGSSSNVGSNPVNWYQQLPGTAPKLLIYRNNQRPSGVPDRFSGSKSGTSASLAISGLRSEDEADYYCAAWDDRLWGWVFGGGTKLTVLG
notes: as for B2

Key:
[1] = target: T1, recombinant soluble murine C4.4a (mouse, UniProt Q91YK8 33-343, limits assumed); assay: direct ELISA, Fab supernatant on coated mouse C4.4a, signal normalized to Fab quantity
T1 construct: also called mouse C4.4a; mC4.4a
T1 sequence (looked up): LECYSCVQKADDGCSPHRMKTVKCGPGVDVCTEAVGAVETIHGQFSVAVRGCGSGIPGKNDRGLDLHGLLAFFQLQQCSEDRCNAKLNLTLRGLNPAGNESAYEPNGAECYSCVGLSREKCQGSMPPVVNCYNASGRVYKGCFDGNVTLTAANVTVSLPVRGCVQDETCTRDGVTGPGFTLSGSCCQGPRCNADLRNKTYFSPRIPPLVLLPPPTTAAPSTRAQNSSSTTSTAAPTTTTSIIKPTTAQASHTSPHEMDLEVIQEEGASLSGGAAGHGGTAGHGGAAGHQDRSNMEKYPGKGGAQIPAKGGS
Method: (§1) Cultures were diluted in 10% Smart Block in PBST and bound to the MTP plates for 1 h at 20° C. After washing with PBST, captured antibodies were incubated with a HRP-coupled anti-lambda antibody (Sigma, A5175) and detected by incubating the plate with 10 μM amplex red substrate (Invitrogen, A12222) for 30 minutes at 20° C. in the dark followed by fluorescence measurement. Determined quantification signals were checked to be in the dynamic range of an calibration series built up with concentrated parental Fab (M31-B01 or M20-D02-S-A) expression culture supernatant allowing a relative quantification of each individual Fab expression sample.
(§2) To determine the activity of the mutated Fab variants on recombinant soluble human or mouse C4.4a a direct ELISA assay format was used. Briefly, MTP plates (Nunc maxisorp black, 460518) were coated with 2 μg/ml either human or mouse C4.4a diluted in coating buffer (Candor Bioscience GmbH, 121125) and incubated for 15 h at 4° C. After washing 3 times with PBST, plates were blocked with 100% Smart Block (Candor Bioscience GmbH, 113500) for 1 h at 20° C. and the washing steps were repeated. For binding of the Fab antibody fragments 20 μl of culturing supernatants were added to the plates for 1 h at 20° C. followed by washing. In some cases the washing stringency was increased by an additional incubation step with 10% Smart Block in PBST for 90 min followed by washing 3 times with PBST (“process B” in Table 10b). Bound parental Fabs and variants were then detected by a HA-epitope tag specific antibody HRP conjugate (Bethyl, A190-108P). 10 μM amplex red substrate (Invitrogen, A12222) was added to the plates and the fluorescence signal was detected using a common fluorescence reader, e.g. Tecan Ultra. Quantity normalized affinity signals were calculated as ratios of background corrected affinity and quantification signals in the respective ELISA: (Signalaffinity−Backgroundaffinity)/(Signalquantity−Backgroundquantity). The resulting values correlate mainly with the affinity in a positive manner, whereas not normalized values correlate additionally with the concentration of the binding Fab in the sample.

[2] = target: T2, recombinant soluble human C4.4a (human, UniProt O95274 31-308); assay: direct ELISA, Fab supernatant on coated human C4.4a, signal normalized to Fab quantity
T2 construct: recombinant, soluble, purified protein; also called hC4.4a; full length C4.4a
T2 sequence: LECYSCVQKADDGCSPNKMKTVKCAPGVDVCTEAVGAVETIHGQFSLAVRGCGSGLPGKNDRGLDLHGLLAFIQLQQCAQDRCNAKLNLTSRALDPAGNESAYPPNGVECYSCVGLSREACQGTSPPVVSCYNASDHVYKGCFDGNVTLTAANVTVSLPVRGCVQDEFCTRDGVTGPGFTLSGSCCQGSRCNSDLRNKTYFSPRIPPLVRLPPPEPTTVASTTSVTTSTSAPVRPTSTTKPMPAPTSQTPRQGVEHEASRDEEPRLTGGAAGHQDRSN
Method: as §1, §2

| Binder | normalized affinity signal (average) [1] | normalized affinity signal (median) [1] | normalized affinity signal (average) [2] | normalized affinity signal (median) [2] |
| --- | --- | --- | --- | --- |
| B1 | 0.13 | 0.16 | 1.11 | 1.23 |
| B2 | 0.4 | – | 3.17 | – |
| B3 | 0.13 | – | 1.3 | – |
| B4 | – | 0.32 | – | 1.53 |
| B5 | – | 0.01 | – | 2.31 |
| B6 | – | 0.35 | – | 1.12 |
| B7 | 0.32 | – | 0.95 | – |
| B8 | – | 0.74 | – | 1.58 |
| B9 | 0.12 | – | 1.11 | – |
| B10 | 0.13 | – | 1.65 | – |
| B11 | – | 0.73 | – | 1.5 |
| B12 | 1.01 | – | 2.45 | – |
| B13 | 0.21 | – | 1.49 | – |
| B14 | – | 0.23 | – | 0.77 |
| B15 | – | – | 0.11 | – |
